Legend:
[1] = target: internally quenched peptide probe with CM PMGLK (SEQ ID NO: 64)
[2] = target: internally quenched peptide probe with CM RSPWGL (SEQ ID NO: 182)
[3] = target: internally quenched peptide probe with CM PWGLRS (SEQ ID NO: 181)
[4] = target: internally quenched peptide probe with CM APMGLKH (SEQ ID NO: 7)
[5] = target: internally quenched peptide probe with CM PMGLKS (SEQ ID NO: 5)
[6] = target: internally quenched peptide probe with CM 7056 (PEGL, SEQ ID NO: 11)
[7] = target: internally quenched peptide probe with CM 7047 (PYGL, SEQ ID NO: 103)
[8] = target: internally quenched peptide probe with CM 7041 (PWGL, SEQ ID NO: 100)
[9] = target: internally quenched peptide probe with CM 7054 (PKGL, SEQ ID NO: 108)
[10] = target: internally quenched peptide probe with CM 7052 (PLGL, SEQ ID NO: 107)
[11] = target: internally quenched peptide probe with CM 7049 (PFGL, SEQ ID NO: 104)
[12] = target: internally quenched peptide probe with CM 7050 (PRGL, SEQ ID NO: 105)
[13] = target: internally quenched peptide probe with CM 7055 (PHGL, SEQ ID NO: 10)
[14] = target: internally quenched peptide probe with CM 7051 (PMGL, SEQ ID NO: 106)
[15] = target: internally quenched peptide probe with CM 7053 (PQGL, SEQ ID NO: 9)

B1: human recombinant MT-SP1 (R&D Systems, catalog No: 3946-SEB) (protein)
chain: VVGGTDADEGEWPWQVSLHALGQGHICGASLISPNWLVSAAHCYIDDRGFRYSDPTQWTAFLGLHDQSQRSAPGVQERRLKRIISHPFFNDFTFDYDIALLELEKPAEYSSMVRPICLPDASHVFPAGKAIWVTGWGHTQYGGTGALILQKGEIRVINQTTCENLLPQQITPRMMCVGFLSGGVDSCQGDSGGPLSSVEADGRIFQAGVVSWGDGCAQRNKPGVYTRLPLFRDWIKENTGV
[1]
  Probe Cleavage (kcat/KM): 1600 M⁻¹ s⁻¹
  Probe Cleavage (pM/s): 46.1 pM/s
[2]
  Probe Cleavage (kcat/KM): 48000 M⁻¹ s⁻¹
  Probe Cleavage (pM/s): 2390 pM/s
[3]
  Probe Cleavage (kcat/KM): 31000 M⁻¹ s⁻¹
  Probe Cleavage (pM/s): 1230 pM/s
[4]
  Probe Cleavage (kcat/KM): 77000 M⁻¹ s⁻¹
  Probe Cleavage (pM/s): 3330 pM/s
[5]
  Probe Cleavage (kcat/KM): 320000 M⁻¹ s⁻¹
  Probe Cleavage (pM/s): 14100 pM/s

B2: human recombinant MMP2 (R&D Systems, catalog No: 902-MP) (protein)
chain: YNFFPRKPKWDKNQITYRIIGYTPDLDPETVDDAFARAFQVWSDVTPLRFSRIHDGEADIMINFGRWEHGDGYPFDGKDGLLAHAFAPGTGVGGDSHFDDDELWTLGEGQVVRVKYGNADGEYCKFPFLFNGKEYNSCTDTGRSDGFLWCSTTYNFEKDGKYGFCPHEALFTMGGNAEGQPCKFPFRFQGTSYDSCTTEGRTDGYRWCGTTEDYDRDKKYGFCPETAMSTVGGNSEGAPCVFPFTFLGNKYESCTSAGRSDGKMWCATTANYDDDRKWGFCPDQGYSLFLVAAHEFGHAMGLEHSQDPGALMAPIYTYTKNFRLSQDDIKGIQELYGASPDIDLGTGPTPTLGPVTPEICKQDIVFDGIAQIRGEIFFFKDRFIWRTVTPRDKPMGPLLVATFWPELPEKIDAVYEAPQEEKAVFFAGNEYWIYSASTLERGYPKPLTSLGLPPDVQRVDAAFNWSKNKKTYIFAGDKFWRYNEVKKKMDPGFPKLIADAWNAIPDNLDAVVDLQGGGHSYFFKGAYYLKLENQSLKSVKFGSIKSDWLGC
[6]
  kcat/KM (M^-1 s^-1): greater than 5×10^2 M^-1 s^-1
  stated: cleaved (kcat/Km, M-1s-1, bar on a log axis): PEGL, MMP2 bar ends between 1x10^3 and 1x10^4
[7]
  kcat/KM (M^-1 s^-1): greater than 5×10^2 M^-1 s^-1
  stated: cleaved (kcat/Km, M-1s-1, bar on a log axis): PYGL, MMP2 bar ends between 1x10^3 and 1x10^4
[1]
  Probe Cleavage (kcat/KM): 180000 M⁻¹ s⁻¹
  Probe Cleavage (pM/s): 4690 pM/s
[8]
  stated: cleaved (kcat/Km, M-1s-1, bar on a log axis): PWGL, MMP2 bar ends between 1x10^3 and 1x10^4
[2]
  Probe Cleavage (kcat/KM): 260000 M⁻¹ s⁻¹
  Probe Cleavage (pM/s): 11700 pM/s
[3]
  Probe Cleavage (kcat/KM): 140000 M⁻¹ s⁻¹
  Probe Cleavage (pM/s): 3800 pM/s
[9]
  stated: cleaved (kcat/Km, M-1s-1, bar on a log axis): PKGL, MMP2 bar ends between 1x10^4 and 1x10^5
[10]
  stated: cleaved (kcat/Km, M-1s-1, bar on a log axis): PLGL, MMP2 bar ends between 1x10^4 and 1x10^5
[11]
  kcat/KM (M^-1 s^-1): greater than 5×10^2 M^-1 s^-1
  stated: cleaved (kcat/Km, M-1s-1, bar on a log axis): PFGL, MMP2 bar ends between 1x10^3 and 1x10^4
[12]
  stated: cleaved (kcat/Km, M-1s-1, bar on a log axis): PRGL, MMP2 bar ends between 1x10^4 and 1x10^5; the highest MMP2 bar of the ten peptide probes
[13]
  stated: cleaved (kcat/Km, M-1s-1, bar on a log axis): PHGL, MMP2 bar ends just above the 1x10^4 tick
[14]
  stated: cleaved (kcat/Km, M-1s-1, bar on a log axis): PMGL, MMP2 bar ends between 1x10^4 and 1x10^5
[4]
  Probe Cleavage (kcat/KM): 2.7e+06 M⁻¹ s⁻¹
  Probe Cleavage (pM/s): 81700 pM/s
[15]
  stated: cleaved (kcat/Km, M-1s-1, bar on a log axis): PQGL, MMP2 bar ends between 1x10^4 and 1x10^5
[5]
  Probe Cleavage (kcat/KM): 8.5e+06 M⁻¹ s⁻¹
  Probe Cleavage (pM/s): 119000 pM/s
